Here are results for two molecules from patent US20210301021A1 (NANJING GENSCRIPT BIOTECH, published 2021).

In test [1] the target is T1, CTLA4/His (human, UniProt P16410 36-161).
T1 construct: not shown: His tag
T1 sequence (looked up): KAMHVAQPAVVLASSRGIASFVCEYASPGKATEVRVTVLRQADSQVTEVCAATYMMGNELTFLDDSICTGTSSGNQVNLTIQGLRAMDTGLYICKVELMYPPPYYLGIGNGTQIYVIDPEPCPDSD
Description: SPR, Biacore 8K, antibody captured on the chip, antigen as analyte, 1:1 binding model; chimeric antibody, analyte CTLA4/His (Table 4).

The target in test [2] is T1, CTLA4/His. Description: SPR (Biacore), untreated control of the oxidation pressure test, analyte CTLA4/His.
The target of test [3] is T2, CTLA-4 on the functional cells of the Promega anti-CTLA-4 blocking assay kit (UniProt P16410 36-223, limits assumed).
T2 sequence (looked up): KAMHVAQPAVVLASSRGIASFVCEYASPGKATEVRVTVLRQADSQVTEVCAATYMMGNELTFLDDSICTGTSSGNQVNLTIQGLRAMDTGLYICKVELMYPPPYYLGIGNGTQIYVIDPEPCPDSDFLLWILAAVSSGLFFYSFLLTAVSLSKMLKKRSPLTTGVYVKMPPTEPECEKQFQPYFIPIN
Description: cell-based or functional assay.

The target of test [4] is T1, CTLA4/His. Description: SPR, Biacore 8K, antibody captured on the chip, antigen as analyte, 1:1 binding model.
The target in test [5] is T1, CTLA4/His. Description: SPR, Biacore 8K, antibody captured on the chip, antigen as analyte, 1:1 binding model; Table 4, analyte CTLA4/His; Rmax 38.2, Chi^2 5.48E-02.

Usually koff stands for the first-order rate constant of dissociation. Read a high koff as a short-lived complex. One may read the Kd as the equilibrium constant for the complex coming apart. High values mean a looser complex, low ones a tighter complex. The kon is the second-order rate constant of association. Lower therefore signals slower complex formation.

Bounds are passed on as bounds.

B1: Chimeric antibody (antibody, V domains shown)
VH: QVHLQQSGDVLVKPGASVNLSCKASGYTFTSYWINWIKQRPGQGLEWIGRIAPGSGTTYYNEMFTGKATLTVVTSSTTAYIQLSSLSFEDSAVYFCARGDYFDYWDQGTTLTVSS
VL: QIVLTQSPAIMSASPGGKVTITCSASKSVSYIHWFQQKPGTSPKLLIYDTSTLASGVPPRFSGSGSGPSYSLTISRMEAEDAATYYCQQRTTYPLTFGGGTKLEVR
notes: also called Chimeric IgG
On to B1, for which, in test [1], the koff is at most 1e-05 s⁻¹. Moreover, in test [2], binding was put at a Kd of 0.0219 nM, the koff is 8.16e-06 s⁻¹ and the kon amounted to 372000 M⁻¹ s⁻¹. Moreover, the “EC50 (µg/ml), luciferase reporter, Promega anti-CTLA-4 blocking assay (CD80/CD86 aAPC/Raji cells with functional cells expressing CTLA-4)” value in test [3] amounted to 3.96 µg/mL. Further, in test [4], the Kd was at most 0.023 nM and the association rate constant (kon) was found to be 434000 M⁻¹ s⁻¹.

B2: AH01672 humanized anti-human CTLA4 monoclonal antibody (human IgG1/kappa) (antibody, V domains shown)
VH: QVQLVQSGAEVKKPGASVKVSCKASGYTFTSYWINWVKQAPGQGLEWMGRIAPGSGTTYYNEMFTGRVTMTRDTSTSTAYMELSSLRSEDTAVYYCARGDYFDYWDQGTMVTVSS
VL: DIQLTQSPSFLSASVGDRVTITCSASKSVSYIHWYQQKPGKAPKLLIYDTSTLASGVPPRFSGSGSGPEFSLTISSLQPEDFATYYCQQRTTYPLTFGGGTKLEIK
notes: also called AH1672
As for B2, the “EC50 (µg/ml), luciferase reporter, Promega anti-CTLA-4 blocking assay (CD80/CD86 aAPC/Raji cells with functional cells expressing CTLA-4)” value in test [3] came out at 7.31 µg/mL. Further, in test [4], the dissociation constant Kd was at most 0.0145 nM and the off-rate (koff) was at most 1e-05 s⁻¹. Moreover, the association rate constant (kon) in test [5] was 690000 M⁻¹ s⁻¹.
